In US20070161067A1 (STANFORD UNIVERSITY, published 2007):

Columns and labels:
Assay in all cases: cell-based or functional assay
[1] = target: Cfluc-FKBP12, split site at amino acid position 420 of SEQ ID NO: 2 (Photinus pyralis) (UniProt P62942)
[2] = target: Cfluc-FKBP12, split site at amino acid position 445 of SEQ ID NO: 2 (Photinus pyralis) (UniProt P62942)
[3] = target: Cfluc-FKBP12, split site at amino acid position 455 of SEQ ID NO: 2 (Photinus pyralis) (UniProt P62942)
[4] = target: Cfluc-FKBP12, split site at amino acid position 437 of SEQ ID NO: 2 (Photinus pyralis) (UniProt P62942)
Cfluc-FKBP12, split site at amino acid position 437 of SEQ ID NO: 2 (Photinus pyralis), sequence (P62942 other isoform, or with tags, fused parts or gaps limits assumed): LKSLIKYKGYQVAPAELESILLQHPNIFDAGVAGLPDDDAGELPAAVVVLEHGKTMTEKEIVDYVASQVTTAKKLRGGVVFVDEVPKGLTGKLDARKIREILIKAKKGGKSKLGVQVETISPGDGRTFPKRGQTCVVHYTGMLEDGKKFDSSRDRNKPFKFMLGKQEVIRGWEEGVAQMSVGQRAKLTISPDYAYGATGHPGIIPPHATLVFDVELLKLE

[5] = target: Cfluc (437-550 of SEQ ID NO: 2) (Photinus pyralis, UniProt P08659 438-550 = luciferase)
[6] = target: Cfluc (265-550 of SEQ ID NO: 2) (Photinus pyralis, UniProt P08659 265-550 = luciferase)
[7] = target: T1, Cfluc (500-550 of SEQ ID NO: 2) (Photinus pyralis, UniProt P08659 501-550 = luciferase)
T1 chain: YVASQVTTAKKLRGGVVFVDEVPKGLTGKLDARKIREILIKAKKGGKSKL

[8] = target: Cfluc (245-550 of SEQ ID NO: 2) (Photinus pyralis, UniProt P08659 245-550 = luciferase)
[9] = target: Cfluc (300-550 of SEQ ID NO: 2) (Photinus pyralis, UniProt P08659 300-550 = luciferase)
[10] = target: Cfluc (445-550 of SEQ ID NO: 2) (Photinus pyralis, UniProt P08659 446-550 = luciferase)

Cfluc-FKBP12, split site at amino acid position 445 of SEQ ID NO: 2 (Photinus pyralis), sequence (P62942 other isoform, or with tags, fused parts or gaps limits assumed): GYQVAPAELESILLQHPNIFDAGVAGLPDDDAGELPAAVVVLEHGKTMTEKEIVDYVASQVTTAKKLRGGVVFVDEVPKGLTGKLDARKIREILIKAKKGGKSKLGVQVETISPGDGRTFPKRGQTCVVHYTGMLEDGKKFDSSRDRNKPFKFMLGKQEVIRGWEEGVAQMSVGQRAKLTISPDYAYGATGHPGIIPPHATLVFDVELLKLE
Cfluc-FKBP12, split site at amino acid position 420 of SEQ ID NO: 2 (Photinus pyralis), sequence (P62942 other isoform, or with tags, fused parts or gaps limits assumed): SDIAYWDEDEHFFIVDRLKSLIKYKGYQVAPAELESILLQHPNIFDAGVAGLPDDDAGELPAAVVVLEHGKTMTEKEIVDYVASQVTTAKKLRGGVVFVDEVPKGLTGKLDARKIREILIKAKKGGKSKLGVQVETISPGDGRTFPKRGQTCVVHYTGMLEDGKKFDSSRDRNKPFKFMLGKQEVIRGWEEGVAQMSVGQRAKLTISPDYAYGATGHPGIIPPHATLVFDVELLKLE
Cfluc-FKBP12, split site at amino acid position 455 of SEQ ID NO: 2 (Photinus pyralis), sequence (P62942 other isoform, or with tags, fused parts or gaps limits assumed): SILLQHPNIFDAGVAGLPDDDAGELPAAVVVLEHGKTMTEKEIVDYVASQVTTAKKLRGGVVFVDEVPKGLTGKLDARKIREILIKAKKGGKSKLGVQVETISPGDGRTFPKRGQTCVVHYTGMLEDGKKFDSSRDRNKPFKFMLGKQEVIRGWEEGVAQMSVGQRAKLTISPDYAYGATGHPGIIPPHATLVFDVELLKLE

FRB-Nfluc, split site at amino acid position 420 of SEQ ID NO: 2 (from UniProt P42345 2024-2113)
firefly luciferase signal upon exposure to rapamycin, fold over the cells not exposed to rapamycin (co-transfected 293T cells) [1]: 10 fold

FRB-Nfluc, split site at amino acid position 445 of SEQ ID NO: 2 (from UniProt P42345 2024-2113)
firefly luciferase signal upon exposure to rapamycin, fold over the cells not exposed to rapamycin (co-transfected 293T cells) [2]: 350 fold

FRB-Nfluc, split site at amino acid position 455 of SEQ ID NO: 2 (from UniProt P42345 2024-2113)
firefly luciferase signal upon exposure to rapamycin, fold over the cells not exposed to rapamycin (co-transfected 293T cells) [3]: 30 fold

FRB-Nfluc, split site at amino acid position 437 of SEQ ID NO: 2 (from UniProt P42345 2024-2113)
firefly luciferase signal upon exposure to rapamycin, fold over the cells not exposed to rapamycin (co-transfected 293T cells) [4]: 40 fold

B1: Nfluc (1-475 of SEQ ID NO: 2) (other)
chain: MEDAKNIKKGPAPFYPLEDGTAGEQLHKAMKRYALVPGTIAFTDAHIEVNITYAEYFEMSVRLAEAMKRYGLNTNHRIVVCSENSLQFFMPVLGALFIGVAVAPANDIYNERELLNSMNISQPTVVFVSKKGLQKILNVQKKLPIIQKIIIMDSKTDYQGFQSMYTFVTSHLPPGFNEYDFVPESFDRDKTIALIMNSSGSTGLPKGVALPHRTACVRFSHARDPIFGNQIIPDTAILSVVPFHHGFGMFTTLGYLICGFRVVLMYRFEEELFLRSLQDYKIQSALLVPTLFSFFAKSTLIDKYDLSNLHEIASGGAPLSKEVGEAVAKRFHLPGIRQGYGLTETTSAILITPEGDDKPGGVGKVVPFFEAKVVDLDTGKTLGVNQRGELCVRGPMIMSGYVNNPEATNALIDKDGWLHSDIAYWDEDEHFFIVDRLKSLIKYKGYQVAPAELESILLQHPNIFDAGVAGLPDDD
average of photon max across six animals, 72 h [5]: 2.1 P/cm^2/sec/sr
average of photon max across six animals, 72 h [6]: 1.8 P/cm^2/sec/sr
bioluminescence signal of implanted co-transfected 293T cells in living mice, 24 h [6]: 0.3 P/cm^2/sec/sr
average of photon max across six animals, 72 h [7]: 0.3 P/cm^2/sec/sr
average of photon max across six animals, 72 h [8]: 1.1 P/cm^2/sec/sr
bioluminescence signal of implanted co-transfected 293T cells in living mice, 24 h [8]: 0.3 P/cm^2/sec/sr
luciferase signal against the combination Nfluc 1-475 / Cfluc 265-550 (cell culture and animal study) [8]: 2 fold less
average of photon max across six animals, 72 h [9]: 1.9 P/cm^2/sec/sr
bioluminescence signal of implanted co-transfected 293T cells in living mice, 24 h [9]: 0.3 P/cm^2/sec/sr
average of photon max across six animals, 72 h [10]: 0.7 P/cm^2/sec/sr
